Molecular target: Rabies G-Trimer (CTN-1 Strain) (ectodomain of rabies CTN-1 strain G protein fused in frame to Trimer-Tag) (Rabies virus CTN-1 strain)

B1: NGFR-Fc (nerve growth factor receptor NGFR (p75) fused to Fc) (Fc fusion)
chain: KEACPTGLYTHSGECCKACNLGEGVAQPCGANQTVCEPCLDSVTFSDVVSATEPCKPCTECVGLQSMSAPCVEADDAVCRCAYGYYQDETTGRCEACRVCEAGSGLVFSCQDKQNTVCEECPDGTYSDEANHVDPCLPCTVCEDTERQLRECTRWADAECEEIPGRWITRSTPPEGSDSTAPSTQEPEAPPEQDLIASTVAGVVTTVMGSSQPVVTRGTTDN
Kd: 2.92 nM | koff: 2.39e-05 s⁻¹ | kon: 8170 M⁻¹ s⁻¹

From patent US20230218739A1 (SICHUAN CLOVER BIOPHARMACEUTICALS, published 2023)
